Test results taken from patent US20240166688A1 (NIBEC, published 2024).

What follows are binders tested against HDAC5 protein (Abcam, MA, USA) (assay: SPR, Biacore T200; HDAC5 amine-coupled to CM5 chip, peptide as analyte, 1:1 model).
Sequence of HDAC5 protein (Abcam, MA, USA) (chain, as listed by the source): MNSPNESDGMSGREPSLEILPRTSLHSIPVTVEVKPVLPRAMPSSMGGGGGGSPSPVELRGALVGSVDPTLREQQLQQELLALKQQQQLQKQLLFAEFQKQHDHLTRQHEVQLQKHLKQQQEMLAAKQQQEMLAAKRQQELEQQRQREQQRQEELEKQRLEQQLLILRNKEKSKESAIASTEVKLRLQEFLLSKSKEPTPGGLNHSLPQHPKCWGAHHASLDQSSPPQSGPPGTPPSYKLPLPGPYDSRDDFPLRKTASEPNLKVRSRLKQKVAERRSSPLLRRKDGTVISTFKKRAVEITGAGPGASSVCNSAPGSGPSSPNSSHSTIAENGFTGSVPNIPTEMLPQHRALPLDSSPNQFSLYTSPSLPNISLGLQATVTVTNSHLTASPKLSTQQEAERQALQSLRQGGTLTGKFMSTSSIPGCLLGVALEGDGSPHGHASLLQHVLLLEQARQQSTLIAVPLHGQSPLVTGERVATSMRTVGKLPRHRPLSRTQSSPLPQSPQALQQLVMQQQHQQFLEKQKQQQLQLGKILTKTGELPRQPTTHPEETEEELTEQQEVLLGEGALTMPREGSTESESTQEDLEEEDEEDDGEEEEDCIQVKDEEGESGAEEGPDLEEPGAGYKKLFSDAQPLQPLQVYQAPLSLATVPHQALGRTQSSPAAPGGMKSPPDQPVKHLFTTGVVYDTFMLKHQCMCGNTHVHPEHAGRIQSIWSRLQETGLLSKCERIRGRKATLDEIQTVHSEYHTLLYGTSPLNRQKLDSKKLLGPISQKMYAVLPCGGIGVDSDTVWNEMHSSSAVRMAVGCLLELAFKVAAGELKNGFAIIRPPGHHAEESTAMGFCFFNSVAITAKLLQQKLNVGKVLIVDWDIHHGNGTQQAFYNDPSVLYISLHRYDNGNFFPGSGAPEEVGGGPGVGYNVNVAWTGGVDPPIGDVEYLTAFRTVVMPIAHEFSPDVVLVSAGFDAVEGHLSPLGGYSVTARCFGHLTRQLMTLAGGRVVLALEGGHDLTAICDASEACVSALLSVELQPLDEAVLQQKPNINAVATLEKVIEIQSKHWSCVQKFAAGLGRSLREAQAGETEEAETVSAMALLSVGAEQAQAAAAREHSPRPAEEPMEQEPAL

Question: For GKCSTRGRKCCRRKK (also called AIP) [peptide of SEQ ID NO: 1], which Kd is on record?
Answer: 676 nM

Question: What about the koff of the same binder?
Answer: 0.0726 s⁻¹

Question: What about the kon of the same binder?
Answer: 108000 M⁻¹ s⁻¹

Question: Which results are given for GKCSTRGRKMMRRKK [peptide of SEQ ID NO: 4 (M3)]?
Answer: Kd: 940 nM; koff: 0.0679 s⁻¹; kon: 72200 M⁻¹ s⁻¹

Question: What does the source list for GKMSTRGRKCCRRKK [peptide of SEQ ID NO: 5 (M4)]?
Answer: Kd: 468 nM; koff: 0.0309 s⁻¹; kon: 65900 M⁻¹ s⁻¹

Question: GKMSTRGRKMCRRKK [peptide of SEQ ID NO: 6 (M5)] was tested. Which Kd did it give?
Answer: 444 nM

Question: And the koff?
Answer: 0.0446 s⁻¹

Question: What about the kon of the same binder?
Answer: 100000 M⁻¹ s⁻¹

Question: Which Kd does the source give for GKMSTRGRKCMRRKK [peptide of SEQ ID NO: 7 (M6)] here?
Answer: 704 nM

Question: What about the koff of the same binder?
Answer: 0.0476 s⁻¹

Question: What about the kon of the same binder?
Answer: 67500 M⁻¹ s⁻¹

Question: Which results are given for GKMSTRGRKMMRRKK [peptide of SEQ ID NO: 8 (M7)]?
Answer: Kd: 86.8 nM; koff: 0.00478 s⁻¹; kon: 55000 M⁻¹ s⁻¹

Question: For GKCSTRGRKCMRRKK [peptide of SEQ ID NO: 2 (M1)], which Kd is on record?
Answer: 924 nM

Question: And the koff?
Answer: 0.0687 s⁻¹

Question: What about the kon of the same binder?
Answer: 74400 M⁻¹ s⁻¹

Question: Which Kd does the source give for GKCSTRGRKMCRRKK [peptide of SEQ ID NO: 3 (M2)] here?
Answer: 725 nM

Question: What about the koff of the same binder?
Answer: 0.0595 s⁻¹

Question: What about the kon of the same binder?
Answer: 82100 M⁻¹ s⁻¹
